Reference: paper PMC3228729, “Localization of ASV Integrase-DNA Contacts by Site-Directed Crosslinking and their Structural Analysis”

B1: NH2-4.12 linear (dsDNA)
DNA 1: GAGTATTGCATAAGACTACATT
DNA 2: AATGTAGTCTTATGCAATACTC
modifications: 5-aminouridine at position 12 of strand 4 (paper numbering), carrying aryl diazirine
B2: NH2-3.11 linear (dsDNA)
DNA 1: AATGTAGTCTTATGCAATACTC
DNA 2: GAGTATTGCATAAGACTACATT
modifications: 5-aminouridine replacing T at position 11 of strand 3 (paper numbering), carrying aryl diazirine

Molecular target: T1, ASV integrase WT (avian sarcoma virus, UniProt P03354 1281-1567)
T1 sequence: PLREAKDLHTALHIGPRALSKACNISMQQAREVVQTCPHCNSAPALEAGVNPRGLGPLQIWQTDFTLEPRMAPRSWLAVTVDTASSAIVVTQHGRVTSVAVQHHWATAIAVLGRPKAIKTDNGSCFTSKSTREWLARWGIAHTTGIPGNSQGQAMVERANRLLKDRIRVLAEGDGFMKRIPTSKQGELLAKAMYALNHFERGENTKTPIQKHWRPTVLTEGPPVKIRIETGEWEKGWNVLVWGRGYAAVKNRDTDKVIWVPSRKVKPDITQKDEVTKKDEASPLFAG
Assay: photocrosslinking; DNA-borne diazirine; among highest efficiency; Photocrosslinking: 40 mM HEPES pH 6.5, 150 mM NaCl, 5% glycerol, 0 C, 10 uM IN, 0.05 uM DNA; disulfide: Buffer 1 adjusted to 250-300 mM NaCl, pH 7.5, on ice, +/-10 mM MgCl2
Details: protein: recombinant; label: 32P; blunt

Binder | binding result
B1 | binds
B2 | binds
